Laboratory results published in paper PMC9365288 (Science Advances, 2022).

Biological target: Recombinant TRAF-USP7 (residues 55 to 208) (UniProt Q93009 55-208)
Assay: SPR

Sequence of Recombinant TRAF-USP7 (residues 55 to 208) (Q93009 55-208): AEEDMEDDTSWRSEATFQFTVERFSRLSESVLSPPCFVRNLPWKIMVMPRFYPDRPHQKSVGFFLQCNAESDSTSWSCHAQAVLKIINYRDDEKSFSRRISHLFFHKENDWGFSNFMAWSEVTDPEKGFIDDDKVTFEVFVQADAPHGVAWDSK

B1: Recombinant BTB-Keap1 (residues 48 to 180) (domain or fragment, UniProt Q14145 48-180, looked up)
chain: GNRTFSYTLEDHTKQAFGIMNELRLSQQLCDVTLQVKYQDAPAAQFMAHKVVLASSSPVFKAMFTNGLREQGMEVVSIEGIHPKVMERLIEFAYTASISMGEKCVLHVMNGAVMYQIDSVVRACSDFLVQQLD
Binder B1 has a Kd of 18 nM.
